Results from article PMC5753033, “WH2 and proline‐rich domains of WASP‐family proteins collaborate to accelerate actin filament elongation” (The EMBO Journal, 2017).

Molecular target: Atto540Q-labeled actin monomers (Acanthamoeba castellanii), Latrunculin B-stabilized (Acanthamoeba castellanii, Atto540Q-NHS at reactive lysine residues)
Test: FRET or BRET; 7.5 nM Alexa488-labeled WAVE1 variant titrated with LatB-stabilized Atto540Q-actin; donor quenching; room temperature; 20 mM HEPES pH 7.0, 100 mM KCl, 1.5 mM MgCl2, 1 mM EGTA, 1 mM ATP; single site binding curve
Details: both partners purified

B1: Alexa488-labeled WAVE1 P_CA (WH2-delete construct) (domain or fragment)
chain: RPHEPPPPPPMHGAGDAKPIPTSISSATGLIENRPQSPATGRTPVFVSPTPPPPPPPLPSALSTSSLRASMTSTPPPPVPPPPPPPATALQAPAVPPPPAPLQIAPGVLHPAPPPIAPPLVQPSPPVARAAPVSETVPVHPLPQGEVQGLPPPPPPPPLPPPGIRPSSPVTVTALAHPPSGLHPTPSTAPGPHVPLMPPSPPSQVIPASEPKRHPSCLPVISDEEQREQEAKHERIENDVATILSRRIAVEYSDSEDDSEFDEVDWLE
modifications: Alexa488-maleimide on Cys490
**Q.** How did the Kd turn out when B1 was run?
**A.** 425 nM
